The results in this text go back to patent US20090075921A1, “Bone/joint disease sensitivity gene and use thereof” (Riken, priority 2004, published 2009).

Assay [1] concerns ATDC5 cells. The experiment in a line: Purified recombinant mouse asporin on TGF-β1-stimulated aggrecan and type II collagen gene expression in ATDC5. The assay is classed as cell-based. The note with it: TGF-β1 10 ng/ml, 18 hours, corrected by GAPDH. The method, then: ATDC5 cells were inoculated to a 12-well plate at […], and cultured in a medium 1-2 (a DMEM/F12 medium containing 5% FBS, ITS (Sigma), penicillin (100 U/ml) and streptomycin (100 μg/ml)) for 2 days. Purified mouse asporin diluted with a medium 1-2 containing 0.2% FBS was added to the cells, and the cells were further cultured for 12 hours, after which TGF-β1 (10 ng/ml) was added, and the cells were further cultured for 18 hours, after which total RNA extraction, purification, cDNA synthesis, and real-time PCR were performed in the same manner as Example 18. At this time, the expression levels of the aggrecan and type II collagen genes were corrected by the expression level of the […] (GAPDH) gene.

In another assay the target is TGF-β1 (Homo sapiens, UniProt P01137). As to the kind of experiment: Binding assay of purified recombinant mouse asporin and TGF-β by microplate assay method. Particulars: biotinylated mouse asporin, TGF-β1-coated plate, OD405. The method, then: A binding assay was performed using the method described in Example 24 with a partial modification as described below. To a Maxisorp 96-well microplate of Nunc, a 1 μg/ml TGF-β1 solution prepared with 0.05M sodium carbonate buffer (pH 9.6) was dispensed at 100 μl/well, and the microplate was coated with TGF-β1 at 4° C. overnight. The TGF-β-coated wells were blocked in 200 μl/well of Block Ace at 37° C. for 3 hours. Next, mouse asporin and biotinylated mouse asporin, diluted with Block Ace, were added to obtain a total volume of 100 μl per well, and the microplate was incubated at 4° C. overnight. The wells were washed with […] of TBST three times, after which streptavidin-alkaline phosphatase (Novagen) diluted 1000 fold with TBST was added at […], and the microplate was incubated at room temperature for 1 hour. The wells were washed with 400 μl/well of TBST five times, and then colored using an alkaline phosphatase substrate kit (BIO-RAD), and the absorbance at 405 nm was measured using Ultramark Microplate Imaging System (BIO-RAD).

The test system of assay [2] is ATDC5 cells. As to the kind of experiment: MTT assay of ATDC5 cell growth. The assay is classed as cell-based, mouse. The method, then: ATDC5 was inoculated to a 12-well plate at 0.4×10^5 cells/well, and cultured using the medium 1-2 described in Example 19 for 24 hours, after which asporin and bFGF were added, and MTT assay was performed over time as described below. Specifically, the medium was removed by suction, the 1 mg/ml MTT reagent (DOJINDO) dissolved in DMEM/F12 was added at 1 ml/well, and the plate was incubated in a CO2 incubator for 1 hour. The supernatant was removed by suction, a Lysis reagent (86% isopropanol, 40 mM HCl, 1% SDS) was added to the plate at 0.2 ml/well, and extraction was performed at room temperature for 5 minutes. This extract was transferred to a 96-well plate, and OD550 was measured using a plate reader.

Assay [3] concerns ATDC5 cells. The experiment in a line: bFGF-stimulated BrdU uptake in ATDC5 cells. The assay is classed as cell-based, mouse. The note with it: serum-free DMEM/F12, 20 hours. The method, then: When ATDC5 cells inoculated in the same manner as Example 40 became subconfluent, the cells were twice washed with serum-free DMEM/F12, serum-free DMEM/F12 was added at 1 ml/well, and the cells were cultured for 24 to 48 hours. Asporin and bFGF were added thereto, and the cells were further cultured for 20 hours, after which BrdU uptake assay was performed using Cell Proliferation ELISA, BrdU (Roche) by the protocol modified for 12-well plate assay as described below. Specifically, BrdU was added to the cells to obtain a final concentration of 1 μM, and the cells were cultured at 37° C. for 4 hours, after which the culture broth was removed by suction, and a fixative solution (FixDenat) was added at 1 ml/well, after which the plate was allowed to stand at room temperature for 30 minutes. The fixative solution was removed by suction, BrdU antibody-HRP (×1000) was added at 0.5 ml/well, and the plate was allowed to stand at room temperature for 1 hour, washed with TBST four times, a substrate solution was added at 0.3 ml/well to proceed the reaction at room temperature for 30 minutes until sufficient color development occurred. 1 M phosphoric acid was added at 0.3 ml/well to step the reaction, transferred to a 96-well plate, and OD415 was measured using a plate reader.

The subject of a further assay is NHAC. As to the kind of experiment: Articular chondrocyte differentiation maintenance in redifferentiated NHAC. The note with it: 7 days, TGF-β1 40 ng/ml, asporin 20 μg/ml where added. The assay is classed as cell-based, human. How it is done:
NHAC was redifferentiated by alginate beads culture for 2 weeks using a chondrocyte differentiation medium (CDM) manufactured by Cambrex Company according to the protocol attached. These redifferentiated cells were inoculated to a Lab-Tek II chamber slide (Nunc), a DMEM/F12 containing 5% FBS, ITS (Sigma), and TGF-β1 (40 ng/ml) was added, and the cells were allowed to maintain the degree of differentiation thereof; the effects of addition of asporin (20 μg/ml) on the cell morphology and extracellular proteoglycan accumulation were examined.

In assay [4] the test system is Smad2 phosphorylation in NHAC. As to the kind of experiment: Smad2 phosphorylation by TGF-β1 in NHAC (Western blotting). The assay is classed as cell-based, human. Particulars: asporin 20 μg/ml, TGF-β1 40 ng/ml, 10 minutes. How it is done: NHAC was inoculated to a 12-well plate, and cultured in a DMEM/F12 containing 10% FBS and penicillin/streptomycin; when the cells became nearly confluent, the medium was exchanged with the same medium containing 0.2% serum. 12 hours later, asporin (20 μg/ml) was added; still 12 hours later, TGF-β1 (40 ng/ml) was added; 10 minutes later, the cells were lysed with the M-PER reagent (PIERCE). SDA-PAGE was performed using this cell extract, and Western blotting was performed according to the protocol attached to an antibody product of Cell Signaling Company. As the primary antibodies for detection of phosphorylated Smad2 and Smad2 protein, Phospho-Smad2 antibody (Cell Signaling) and rabbit anti-Smad2 (Zymed Laboratories) were used, respectively. As the […], anti-rabbit IgG-HRP (Cell Signaling) was used.
Background: A western blot detects proteins with antibodies after separation by electrophoresis.

Chain of TGF-β1 (P01137 279-390 limits assumed, species assumed): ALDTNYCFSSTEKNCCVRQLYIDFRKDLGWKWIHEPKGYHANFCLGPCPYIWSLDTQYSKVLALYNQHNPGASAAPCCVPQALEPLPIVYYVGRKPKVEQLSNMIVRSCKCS

B1: purified mouse asporin: recombinant mouse asporin expressed in Escherichia coli, refolded from insoluble fraction and purified by gel filtration (protein)
chain: DMEDTDDDDNDDDDNSLFPTKEPVNPFFPFDLFPTCPFGCQCYSRVVHCSDLGLTSVPNNIPFDTRMVDLQNNKIKEIKENDFKGLTSLYALILNNNKLTKIHPKTFLTTKKLRRLYLSHNQLSEIPLNLPKSLAELRIHDNKVKKIQKDTFKGMNALHVLEMSANPLENNGIEPGAFEGVTVFHIRIAEAKLTSIPKGLPPTLLELHLDFNKISTVELEDLKRYRELQRLGLGNNRITDIENGTFANIPRVREIHLEHNKLKKIPSGLQELKYLQIIFLHYNSIAKVGVNDFCPTVPKMKKSLYSAISLFNNPMKYWEIQPATFRCVLGRMSVQLGNVGK
modifications: left off: small tags and cut ends
Turning to B1, the “suppression of the TGF-β1-stimulated expression of the aggrecan and type II collagen genes” value with ATDC5 cells [1] was “observed depending on the amount of purified mouse asporin added”. Also, in the assay with TGF-β1, the “binding to TGF-β1 (microplate)” value was “bound to TGF-β1 concentration-dependently and specifically”. The “growth of ATDC5 cells (MTT, OD550)” value with ATDC5 cells [2] (added alone, medium 1-2) was “suppressed the growth of ATDC5 cells concentration-dependently”. Besides, the “growth suppressive effect of bFGF on ATDC5 cells” value in the assay with ATDC5 cells [2] (addition of asporin 10 μg/ml) is “enhanced”. In addition, in the assay with ATDC5 cells [3], the “BrdU uptake in the absence of bFGF” value is on record as “did not change BrdU uptake” and the “BrdU uptake in the presence of bFGF” value is “further enhance the increase in BrdU uptake”. In the assay with NHAC, the “Safranine-O stainability (extracellular proteoglycan)” value is reported as “decreased” and the cell morphology entry was “fibroblast-like morphology”. The “Smad2 phosphorylation by TGF-β1 stimulation” value in assay [4] is reported as “suppressed the Smad2 phosphorylation by TGF-β1 stimulation”.
